Measurements taken from paper PMC7472637.

Columns and labels:
Experiment in all cases: in vivo oligomerization (SDS-PAGE of cell lysates ± DTT, anti-FLAG Western blot)
[1] = molecular target: HapR-R37E, C-terminal FLAG-tagged (Vibrio cholerae)
[2] = molecular target: HapR, wild type, C-terminal FLAG-tagged (Vibrio cholerae)
[3] = molecular target: HapR-R37A, C-terminal FLAG-tagged (Vibrio cholerae)
[4] = molecular target: HapR-R37H, C-terminal FLAG-tagged (Vibrio cholerae)
[5] = molecular target: HapR-R37D, C-terminal FLAG-tagged (Vibrio cholerae)

## HapR-R37E, C-terminal FLAG-tagged (natural protein)
[1]
  stoichiometry N: 2

## HapR, wild type, C-terminal FLAG-tagged (natural protein)
[2]
  stoichiometry N: 2

## HapR-R37A, C-terminal FLAG-tagged (natural protein)
[3]
  stoichiometry N: 2

## HapR-R37H, C-terminal FLAG-tagged (natural protein)
[4]
  stoichiometry N: 2

## HapR-R37D, C-terminal FLAG-tagged (natural protein)
[5]
  stoichiometry N: 2
